Source: PMC3105389
Like-named read-outs stand apart in the source and are kept apart here.

What was measured:
[1] = target: T1, MobMN199 (MobM relaxase domain) (Streptococcus plasmid pMV158 (plasmid …, UniProt P13925 1-199)); test: competition
T1 sequence: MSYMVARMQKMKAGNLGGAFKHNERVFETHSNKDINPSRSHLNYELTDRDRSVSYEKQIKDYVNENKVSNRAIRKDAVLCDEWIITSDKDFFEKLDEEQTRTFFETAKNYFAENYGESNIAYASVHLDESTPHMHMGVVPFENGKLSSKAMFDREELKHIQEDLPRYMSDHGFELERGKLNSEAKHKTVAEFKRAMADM

[2] = target: T1, MobMN199 (MobM relaxase domain); test: competition; remark: listed apart in the source
[3] = target: T1, MobMN199 (MobM relaxase domain); test: EMSA
[4] = target: T1, MobMN199 (MobM relaxase domain); test: competition; remark: listed apart in the source

ACTTTATGAATATAAAGT (ssDNA) [IR1 18-mer]
binding result [1]: no binding

GCACACACTTTATGA (ssDNA) [IR3-L 15-mer]
binding result [2]: no binding

GCACACACTTTATGAATATAAAGTATAGTGTGTTATACTTTA (ssDNA) [ORIT 42-mer]
Kd [3]: 58 ± 6 nM

GAATATAAAGT (ssDNA) [IR1-R 11-mer]
binding result [2]: no binding

GCACACACTTTATGAATATAAAGTATAGTGTG (ssDNA) [IR3 32-mer]
Kd [3]: 60 ± 7 nM

ACTTTATGAATATAAAGTATAGTGTG (ssDNA) [IR1+8 26-mer]
binding result [4]: binds

TAAAGTATAGTGTGTTATACTTTA (ssDNA) [IR2 24-mer]
binding result [2]: no binding

GTATAGTGTG (ssDNA) [10-NIC 10-mer]
binding result [1]: no binding
